Assay results taken from the Human Domainome abundance scans (Beltran et al. 2025).
± gives the uncertainty stated by the source.

B1: Protein C-ets-1, residues 55 to 135; numbered along this chain, P14921 (parent)
chain: GFTKEQQRLGIPKDPRQWTETHVRDWVMWAVNEFSLKGVDFQKFCMNGAALCALGKDCFLELAPDFVGDILWEHLEILQKE

Variants of: B1
Experiment: abundance fitness (aPCA) (normalised: wild type 0, dead -1); higher = more abundant; growth selection in yeast, the domain comes from the species named
Details: Homo sapiens

Row | Variant | abundance fitness
1 | GFTKEQQRLGIPKDPRQWTETHVRDWVMWAVNEFSLKGVDFQKFCMNGAALCALGKDCFWELAPDFVGDILWEHLEILQKE [L60W] | -0.43 ± 0.057
2 | GFTKEQQRLLIPKDPRQWTETHVRDWVMWAVNEFSLKGVDFQKFCMNGAALCALGKDCFLELAPDFVGDILWEHLEILQKE [G10L] | -0.244 ± 0.038
3 | GFTKEQQRLGIPKDPRWWTETHVRDWVMWAVNEFSLKGVDFQKFCMNGAALCALGKDCFLELAPDFVGDILWEHLEILQKE [Q17W] | -0.148 ± 0.051
4 | GFTKEQQRLGIPKDPRQWTETHVRDWVMWAVNEYSLKGVDFQKFCMNGAALCALGKDCFLELAPDFVGDILWEHLEILQKE [F34Y] | -0.023 ± 0.052
5 | GFTKEQNRLGIPKDPRQWTETHVRDWVMWAVNEFSLKGVDFQKFCMNGAALCALGKDCFLELAPDFVGDILWEHLEILQKE [Q7N] | -0.026 ± 0.13
6 | GFTKEQQRLGIPKDPRQWTETHVRDWVMWAVNEFSLKGVDFQKFCMNWAALCALGKDCFLELAPDFVGDILWEHLEILQKE [G48W] | -0.797 ± 0.11
7 | GFTKEIQRLGIPKDPRQWTETHVRDWVMWAVNEFSLKGVDFQKFCMNGAALCALGKDCFLELAPDFVGDILWEHLEILQKE [Q6I] | 0.034 ± 0.084
8 | GFTKEQQRLGIPKDPRQWTETHVRDWVMWEVNEFSLKGVDFQKFCMNGAALCALGKDCFLELAPDFVGDILWEHLEILQKE [A30E] | -0.032 ± 0.044
9 | GFTKEQQRLGIPKDPRQWTETHVRDWVMWAVNEFSDKGVDFQKFCMNGAALCALGKDCFLELAPDFVGDILWEHLEILQKE [L36D] | -0.763 ± 0.11
10 | GFTKEQQRLGIPKDPRQWTETHVRDWVMWAVNEFSLKGVDFQKHCMNGAALCALGKDCFLELAPDFVGDILWEHLEILQKE [F44H] | -0.89 ± 0.22
11 | GFTKEQQRLGIPKDPRQWTETHVRDWMMWAVNEFSLKGVDFQKFCMNGAALCALGKDCFLELAPDFVGDILWEHLEILQKE [V27M] | -0.045 ± 0.049
12 | GFTKEQQRLGIPKDPRQWTETHVRDWVMWAVNEFSLKGVDFQKFCMNGAALCALGKDCFLELAPDFLGDILWEHLEILQKE [V67L] | -0.256 ± 0.061
13 | GFTKEQQRLGIPKDPRQWTQTHVRDWVMWAVNEFSLKGVDFQKFCMNGAALCALGKDCFLELAPDFVGDILWEHLEILQKE [E20Q] | -0.021 ± 0.055
14 | GFTKEQQRLGIPKDPRQWTETHQRDWVMWAVNEFSLKGVDFQKFCMNGAALCALGKDCFLELAPDFVGDILWEHLEILQKE [V23Q] | -0.909 ± 0.11
15 | GFTKEQQRLGIPKDPRQWTETHVRDWVMWAVNEFSLYGVDFQKFCMNGAALCALGKDCFLELAPDFVGDILWEHLEILQKE [K37Y] | -0.255 ± 0.059
16 | GFTKEQQRLGIPKDPRQWTETHVRDWVMWAVNEFSLKGVDFQKFCMNGAALCALGKDAFLELAPDFVGDILWEHLEILQKE [C58A] | 0.049 ± 0.036
17 | GFTKEQQRLGIPKDPRQWTETHVRDWVMWAVNEFSLKGVDFQKFCMNGAALCALGKDCFLELAPDFAGDILWEHLEILQKE [V67A] | -0.062 ± 0.054

Row | Variant | abundance fitness
18 | GFTKEQQRLGIPKDPRQWTETHVRDWVMWAVNEFSLKGVDFQKFCMNGAALCALAKDCFLELAPDFVGDILWEHLEILQKE [G55A] | 0.002 ± 0.035
19 | GFTPEQQRLGIPKDPRQWTETHVRDWVMWAVNEFSLKGVDFQKFCMNGAALCALGKDCFLELAPDFVGDILWEHLEILQKE [K4P] | -0.325 ± 0.068
20 | GFTKEQQRLGIPKDPRQWTETHVRDWVMWAVNEFSLKGVDFQKFRMNGAALCALGKDCFLELAPDFVGDILWEHLEILQKE [C45R] | -0.024 ± 0.029
21 | GFTKEQQRLGIPKDPRQWTETHVRDWVMWAVNEFSLKGVDFQKFCMNGAALCALGKDCFLELAPDDVGDILWEHLEILQKE [F66D] | 0.051 ± 0.058
22 | GFTKEQQRLGIPKDPRQWTETHVRDWVMWAVNEFSLKGVDGQKFCMNGAALCALGKDCFLELAPDFVGDILWEHLEILQKE [F41G] | -0.128 ± 0.031
23 | GFTKEQQRLGIPKDPRQWTETHVRDWVMWAVNEESLKGVDFQKFCMNGAALCALGKDCFLELAPDFVGDILWEHLEILQKE [F34E] | -0.425 ± 0.045
24 | GFTKEQQRLGIPKDPRQWTETHVRDWVMWAVNEFSLKGVDFQKFCMNGAALCALGKDCFLELSPDFVGDILWEHLEILQKE [A63S] | -0.114 ± 0.038
25 | GFTKEQQRFGIPKDPRQWTETHVRDWVMWAVNEFSLKGVDFQKFCMNGAALCALGKDCFLELAPDFVGDILWEHLEILQKE [L9F] | -0.2 ± 0.068
26 | GFTKEQQRLGIPKDPRQWTETHVRDWVMWAVNEFSLKGVDFQKFCMNGLALCALGKDCFLELAPDFVGDILWEHLEILQKE [A49L] | -0.132 ± 0.025
27 | GFTKEQQRLGIPKDPRQWTETHVRDWVMWAVNEFSLKGVDFQKFCMNGAALCALGKDCFLELAPDFVYDILWEHLEILQKE [G68Y] | -0.654 ± 0.13
28 | GFTKEQQRLGIPKDPRQWTETHVRDWVMWAVNEFSLKGVAFQKFCMNGAALCALGKDCFLELAPDFVGDILWEHLEILQKE [D40A] | -0.294 ± 0.038
29 | GFTKEQQRLGIPKDPRQWTETHVRDWVMWAVNEFSLKGVEFQKFCMNGAALCALGKDCFLELAPDFVGDILWEHLEILQKE [D40E] | -0.059 ± 0.055
30 | GFTKEEQRLGIPKDPRQWTETHVRDWVMWAVNEFSLKGVDFQKFCMNGAALCALGKDCFLELAPDFVGDILWEHLEILQKE [Q6E] | -0.164 ± 0.047
31 | GFTKEQQRLGIPKDPRQWTETHVRDWVMWAVNEFSLNGVDFQKFCMNGAALCALGKDCFLELAPDFVGDILWEHLEILQKE [K37N] | -0.033 ± 0.057
32 | GFTKEQERLGIPKDPRQWTETHVRDWVMWAVNEFSLKGVDFQKFCMNGAALCALGKDCFLELAPDFVGDILWEHLEILQKE [Q7E] | 0.089 ± 0.052
33 | GFTKEQQRLGIPKDPRQWTETHVRDWVMWAVNEFSLKGVDFQKFCMNGYALCALGKDCFLELAPDFVGDILWEHLEILQKE [A49Y] | -0.262 ± 0.043
34 | GFTKEQQRLGIPKDPRQWTETHVRDWVMWAVNEFSLKGVDFQKFCMNGAALCALGKDCFLELAPDFVGDILMEHLEILQKE [W72M] | -0.389 ± 0.078
